Measured values published in the nanobody polyreactivity screen of Harvey et al. (2022).

Experiment: yeast display, Sf9 membrane polyspecificity reagent, FACS + sequencing; frameworks hold sequencing errors
Procedure, shortened: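 Genes from sorted yeast were amplified by colony PCR, read by MiSeq 2 × 250 sequencing and filtered on CDR length. These cells carried a synthetic nanobody library in Saccharomyces cerevisiae BJ5465 and were sorted by FACS into low and high (top ~1%) gates on anti-HA and streptavidin fluorescence. Polyreactivity is labelled according to the gate of origin.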

Row | Sequence | polyreactivity (PSR sort gate)
1 | QVQLVESGGGIVQAGGSLRLSCAASGRISAYNAMGWYRQAPGKERELVAAITYDGGSTYYADSVKGRFTISRDNAKNTVYLHMNSLKPEDTAVYYCNAGADSVSFRDGGITTYDYWGQGTQVTVSS | low polyreactivity
2 | QVQLVESGGGIVQAGGSLRLSCAASGRNFGPYTMGWYRQAPGKERELVATISYSGSTTYYSDSVKGRFTISRDNAKNTVYLQMNSLKPEDTAVYYCNAQYYVFITFDYWGQGTKVTVSS | high polyreactivity
3 | QVQLVESGGGIVQAGGSLRLSCAASGRNFIHYAMGGYRQAPGKERELVAAISWGGGRTYYADSEKGRFTISRDNAKNTVYLQMNSLKPEDTAVYYCAAAGRGSGYDYWGQGTQVTVSS | high polyreactivity
4 | QVQLVESGGGIVQAGGSLRLSCAASGRTFDWYAMGWSRQAPGKERELVAAIDSIGGDTYYADSVKGRFTISRDNAKNTVYLQMNSLKPEDTAVYYCAALPWYDWEYEYWGQGTQVTVSS | high polyreactivity
5 | QVQLVESGGGIVQAGGSLRLSCAASGRTFFHYAMGWYRQAPGKERELVAGISSGGRTKYADSVKGRFTISRDNAKNTVYLQMNSLKPEDTAVYYCAASYIVWLTRGAPRKRFDYWGQGTQVTVSS | high polyreactivity
6 | QVQLVESGGGIVQAGGSLRLSCAASGRTFNYYAMGWYRQAPGKEREWVAAISSSGGRTYYADSVKGRFTISRDNAKNTVYLQMNSLKPEDTAVYYCAATGGGYKHWFDYWGQGTQVTVSS | low polyreactivity
7 | QVQLVESGGGIVQAGGSLRLSCAASGRTFRKNAMAWYRQAPGKERELVAAISASGTSTNYADSVKGRFTISRDNAKNTVYLQMISLIPEDTSVYYCDARSYGIYDYWGQGTQVTVSS | high polyreactivity
8 | QVQLVESGGGIVQAGGSLRLSCAASGRTFSIYAMGWYRQAPGKERELVASITNSDGSTYYADSVKGRFTISRDNAKNTVYLQMNSLKPEDTAVYYCNDDSGISRVKYGYWGQATQVTVSS | low polyreactivity
9 | QVQLVESGGGIVQAGGSLRLSCAASGRTFTVYAMGWYRQARGTARELVAAINYSVGSTYYADSVKGRFTISRDNAKNTVYLQMNSLNPEDTAVYYCAADLYHFSYSNSYIRYDYWGQGTQVTVSS | low polyreactivity
10 | QVQLVESGGGIVQAGGSLRLSCAASGRTFWRNTMGWYRQAPGKETELVAAINKPGGSTYYADSVKGRFTISRDNAKNTVYLQMNSLKPEDTAVYYCNALTYQGRHSARYDYWGQGTQVTVSS | high polyreactivity
11 | QVQLVESGGGIVQAGGSLRLSCAASGRTFYRNAMGWYRPAPGKERELFAVISLNGGRTYYADSVKGRFTISRDNAKNTVYLQMNSLKPEDTAVYYCNKLTGPVFTRGFYYWGQGTQVTVSS | high polyreactivity
12 | QVQLVESGGGIVQAGGSLRLSCAASGRTYPGYAMGWYRQAPGKERELVATITFSDGSTYYADSVKGRFTISRDNAKNTVYLQMNSLKPVDTAVYYCNARRSYFLRYGVNYWGQGTQVTVSS | low polyreactivity
13 | QVQLVESGGGIVQAGGSLRLSCAASGSIFGINAMGWNRQAPGKERELVAAITSRGGRTYYADSVKGRFTISRDNAKNTVYLQMNSLKPEDTAVYYCAAATPYLIRYYYWGQGTQVTVSS | high polyreactivity
14 | QVQLVESGGGIVQAGGSLRLSCAASGSIFGSYAMGWYRQAPGKERELVAAITRSGGRTYYADSVKGRFTISRDNAKNTVYLQMNSLKPEDTAVYYCNAKLKLPSGGDYWGQGTQVTVSS | high polyreactivity
15 | QVQLVESGGGIVQAGGSLRLSCAASGSIFYVYAMGWYRQAPGKERELVAAIYSGASTYYADSVKGRFTISRDNAKNTVYLQMNSLKPEDTAVYYCAKRWRRRFVDVWSLYDYWGQGTQVTVSS | low polyreactivity
16 | QVQLVESGGGIVQAGGSLRLSCAASGSIIGPNTMGWYRQAPGKERELVAAIRGGGSTNYADSVKGRFTISRDNAKNTVYLQMNSLKPEDTAVYYCNATWNLFPGVLDRYDYWGQGTQVTVSS | low polyreactivity
17 | QVQLVESGGGIVQAGGSLRLSCAASGSIINGNAMGWDRQAPGKERELVAAITRRGGSTYYADSVKGRFTISRDNAKNTVYLQMNSLKPEDTAVYYCAAEDWLYKRPYKERIVQFYYWGQGTQVTVSS | low polyreactivity
